The text below walks through data of patent publication US20220143214A1.

Experiment [1] deals with LY6A (Ly6a, C57BL/6J mouse) (mouse (C57BL/6J)) (UniProt P05533). Put plainly: AAV library bound to Ly6a-transfected HEK293T cells, NGS.
Experiment [2] has as its target LY6C1 (Ly6c1, C57BL/6J mouse, splice variant 1) (mouse (C57BL/6J)) (UniProt P0CW02). The experiment can be described thus: AAV library bound to Ly6c1-transfected HEK293T cells, NGS.
Experiment [3] has the same target. The description is as above. The source holds these as a separate data set.
Experiment [4] addresses LY6A (Ly6a, C57BL/6J mouse) (mouse (C57BL/6J)) (UniProt P05533). The experiment can be described thus: AAV library bound to Ly6a-transfected HEK293T cells, NGS. This is another data set of the same source.

Where two headings read alike, the source gives them in different places.

UniProt P0CW02, sequence (P0CW02 27-109 limits assumed, change not shown): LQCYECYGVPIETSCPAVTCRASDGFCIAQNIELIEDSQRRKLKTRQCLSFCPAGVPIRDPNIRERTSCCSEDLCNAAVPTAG
UniProt P05533, sequence (P05533 27-112 limits assumed): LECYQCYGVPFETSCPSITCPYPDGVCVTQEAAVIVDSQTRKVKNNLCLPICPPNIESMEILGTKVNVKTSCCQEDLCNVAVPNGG

For the substance AAV9 K449R 7-mer variant C1 (KSAGSIY), the results for the fold enrichment (log2) in experiment [1] and in experiment [2] were 1.41 log2 and 6.12 log2, respectively.
For the substance AAV9 K449R 7-mer variant DKYNFSS, the fold enrichment (log2) in experiment [3] is 3.43 log2; in experiment [4], -0.13 log2.
The matching figures for AAV9 K449R 7-mer variant SYQGYSS: 5.21 log2 and 1.47 log2.
Taken in the same sequence, the figures for AAV9 K449R 7-mer variant GSERPFL were -4.2 log2 and 3.78 log2.
For AAV9 K449R 7-mer variant KTQFKDV, the fold enrichment (log2) is -3.55 log2 in experiment [3] and 2.09 log2 in experiment [4].
The matching figures for AAV9 K449R 7-mer variant GSYGYSS: 2.48 log2 and -3.32 log2.
As to AAV9 K449R 7-mer variant GNENFSS, the fold enrichment (log2) in experiment [3] is 3.45 log2; in experiment [4], -1.43 log2.
Taken in the same sequence, the figures for AAV9 K449R 7-mer variant TSFKPFP were 0.48 log2 and 3.11 log2.
Regarding AAV9 K449R 7-mer variant QDKGYSS, the fold enrichment (log2) in experiment [3] is 2.61 log2; in experiment [4] it was -3.55 log2.
Consider AAV9 K449R 7-mer variant HEHRYST, for which the figures for the fold enrichment (log2) in experiment [3] and in experiment [4] were 3.06 log2 and -4.06 log2, respectively.
The matching figures for AAV9 K449R 7-mer variant VTHGYSS: 3.25 log2 and -0.84 log2.
Taken in the same sequence, the figures for AAV9 K449R 7-mer variant TKYMHSS were 4.24 log2 and 1.35 log2.
The matching figures for AAV9 K449R 7-mer variant MVRNYST: 3.25 log2 and -0.94 log2.
Turning to AAV9 K449R 7-mer variant FRIGGSS, the fold enrichment (log2) was found to be 4.89 log2 in experiment [3] and 1.34 log2 in experiment [4].
With AAV9 K449R 7-mer variant C3 (WGTPPRG), the fold enrichment (log2) in experiment [1] turned out to be 1.01 log2; in experiment [2], 6.35 log2.
On to AAV9 K449R 7-mer variant MRTFGSA, for which the fold enrichment (log2) in experiment [3] worked out at 3.97 log2; in experiment [4] it was 1 log2.
AAV9 K449R 7-mer variant RIDNPFK: the values for the fold enrichment (log2) in experiment [3] and in experiment [4] were -1.89 log2 and 4.48 log2, respectively.
Taken in the same sequence, the figures for AAV9 K449R 7-mer variant RATGYSS were 4.75 log2 and 2.49 log2.
Taken in the same sequence, the figures for AAV9 K449R 7-mer variant TYKSGSS were 3.78 log2 and 1.95 log2.
Regarding AAV9 K449R 7-mer variant SKGSYST, the fold enrichment (log2) worked out at 2.74 log2 in experiment [3] and 1.54 log2 in experiment [4].
Taken in the same sequence, the figures for AAV9 K449R 7-mer variant YVGNPFK were 0.58 log2 and 4.53 log2.
The matching figures for AAV9 K449R 7-mer variant NIIRPFA: 0.4 log2 and 3.23 log2.
Taken in the same sequence, the figures for AAV9 K449R 7-mer variant MRTLMSS were 3.85 log2 and -0.52 log2.
Take AAV9 K449R 7-mer variant IDRGYSV: the fold enrichment (log2) in experiment [3] was 5.3 log2; in experiment [4], -1.04 log2.
In the case of AAV9 K449R 7-mer variant VNRGYSS, the fold enrichment (log2) in experiment [3] amounted to 5.18 log2; in experiment [4], 0.89 log2.
Taken in the same sequence, the figures for AAV9 K449R 7-mer variant DMERPFK were -3.91 log2 and 4.51 log2.
AAV9 K449R 7-mer variant SYIGASS: the fold enrichment (log2) is 5.08 log2 in experiment [3] and -1.01 log2 in experiment [4].
The matching figures for AAV9 K449R 7-mer variant PYQGASS: 5.24 log2 and -0.53 log2.
The matching figures for AAV9 K449R 7-mer variant DRIHGYS: 4.34 log2 and -0.11 log2.
The matching figures for AAV9 K449R 7-mer variant FLPGYSS: 2.54 log2 and -2.29 log2.
For AAV9 K449R 7-mer variant DKAWGST, the fold enrichment (log2) in experiment [3] was found to be 3.56 log2; in experiment [4], 0.19 log2.
In the case of AAV9 K449R 7-mer variant EKKQYSS, the values for the fold enrichment (log2) in experiment [3] and in experiment [4] were 4.45 log2 and 0.89 log2, respectively.
The matching figures for AAV9 K449R 7-mer variant GGRGLSS: 4.9 log2 and 2 log2.
The matching figures for AAV9 K449R 7-mer variant LKYGTST: 4.88 log2 and 1.24 log2.
As to AAV9 K449R 7-mer variant HNVFKNP, the figures for the fold enrichment (log2) in experiment [3] and in experiment [4] were 0.33 log2 and 2.09 log2, respectively.
Taken in the same sequence, the figures for AAV9 K449R 7-mer variant NGYKGST were 4.98 log2 and 1.24 log2.
The matching figures for AAV9 K449R 7-mer variant VPRYGSS: 3.55 log2 and -1.01 log2.
The matching figures for AAV9 K449R 7-mer variant DVKYGSS: 4.92 log2 and -0.36 log2.
On to AAV9 K449R 7-mer variant ESSKPFR, for which the fold enrichment (log2) in experiment [3] was 1.28 log2; in experiment [4], 3.15 log2.
With AAV9 K449R 7-mer variant ESTRPFK, the fold enrichment (log2) turned out to be 0.28 log2 in experiment [3] and 2.87 log2 in experiment [4].
The matching figures for AAV9 K449R 7-mer variant LSMGYST: 2.97 log2 and -3.91 log2.
The matching figures for AAV9 K449R 7-mer variant NLKRPFA: 0.85 log2 and 2.8 log2.
Taken in the same sequence, the figures for AAV9 K449R 7-mer variant ALHVPFK were 0.26 log2 and 4.11 log2.
Turning to AAV9 K449R 7-mer variant NSPGWSS, the fold enrichment (log2) in experiment [3] is 3.08 log2; in experiment [4] it was -0.93 log2.
For the substance AAV9 K449R 7-mer variant SKSGYSA, the fold enrichment (log2) in experiment [3] is 2.14 log2; in experiment [4], -3.32 log2.
Taken in the same sequence, the figures for AAV9 K449R 7-mer variant HKTHYSS were 3.24 log2 and 0.86 log2.
AAV9 K449R 7-mer variant TRTGYST: the fold enrichment (log2) in experiment [3] came out at 4.63 log2; in experiment [4], 0.89 log2.
Taken in the same sequence, the figures for AAV9 K449R 7-mer variant LRGGYST were 2.88 log2 and -3.32 log2.
Taken in the same sequence, the figures for AAV9 K449R 7-mer variant TVTGYSS were 3.22 log2 and -3.91 log2.
AAV9 K449R 7-mer variant GKTHGYS: the fold enrichment (log2) in experiment [3] turned out to be 3.87 log2; in experiment [4], 1.65 log2.
The matching figures for AAV9 K449R 7-mer variant SINKPFV: -0.3 log2 and 4.74 log2.
Taken in the same sequence, the figures for AAV9 K449R 7-mer variant ESRGFSS were 4.7 log2 and -0.58 log2.
Taken in the same sequence, the figures for AAV9 K449R 7-mer variant IVRGLSS were 3.24 log2 and -1.14 log2.
With AAV9 K449R 7-mer variant C5 (ELYKLPT), the results for the fold enrichment (log2) in experiment [1] and in experiment [2] were -2.26 log2 and 5.38 log2, respectively.
Consider AAV9 K449R 7-mer variant LKKGYST, for which the fold enrichment (log2) in experiment [3] came out at 2.96 log2; in experiment [4] it was 1.72 log2.
Taken in the same sequence, the figures for AAV9 K449R 7-mer variant TRDLPFK were -1.36 log2 and 4.34 log2.
The matching figures for AAV9 K449R 7-mer variant TDTRPFI: -3.32 log2 and 4.19 log2.
On to AAV9 K449R 7-mer variant IATGYSQ, for which the fold enrichment (log2) in experiment [3] is 2.18 log2; in experiment [4] it was -3.74 log2.
Taken in the same sequence, the figures for AAV9 K449R 7-mer variant NERRPFL were 0.77 log2 and 4.31 log2.
Taken in the same sequence, the figures for AAV9 K449R 7-mer variant SIARPFV were -3.55 log2 and 3.79 log2.
On to AAV9 K449R 7-mer variant SIYLGSQ, for which the figures for the fold enrichment (log2) in experiment [3] and in experiment [4] were 4.47 log2 and -0.76 log2, respectively.
With AAV9 K449R 7-mer variant EDHRYSS, the figures for the fold enrichment (log2) in experiment [3] and in experiment [4] were 3.4 log2 and 0.17 log2, respectively.
The matching figures for AAV9 K449R 7-mer variant LNRGSST: 4.15 log2 and 1.72 log2.
On to AAV9 K449R 7-mer variant VYPGYST, for which the results for the fold enrichment (log2) in experiment [3] and in experiment [4] were 2.21 log2 and -3.32 log2, respectively.
On to AAV9 K449R 7-mer variant GDNRPFK, for which the fold enrichment (log2) in experiment [3] came out at 0.57 log2; in experiment [4] it was 2.65 log2.
Taken in the same sequence, the figures for AAV9 K449R 7-mer variant LAHTYSS were 3.97 log2 and 0.04 log2.
As to AAV9 K449R 7-mer variant RLSFKDV, the fold enrichment (log2) in experiment [3] was -1.62 log2; in experiment [4], 2.39 log2.
The matching figures for AAV9 K449R 7-mer variant KDKFKDI: -2.08 log2 and 3.38 log2.
Consider AAV9 K449R 7-mer variant TTMKPFN, for which the fold enrichment (log2) is -3.74 log2 in experiment [3] and 2.95 log2 in experiment [4].
